Results: publication PMC5096884

Biological target: Not1-3HA (UniProt P25655)
Assay: co-immunoprecipitation (TAP pull-down on IgG-coupled magnetic beads), Western blot quantification
Conditions: cells in exponential growth phase; n=5 biological replicates; parent: est. 1.0; read off a plot

Sequence of UniProt P25655 (P25655 whole entry): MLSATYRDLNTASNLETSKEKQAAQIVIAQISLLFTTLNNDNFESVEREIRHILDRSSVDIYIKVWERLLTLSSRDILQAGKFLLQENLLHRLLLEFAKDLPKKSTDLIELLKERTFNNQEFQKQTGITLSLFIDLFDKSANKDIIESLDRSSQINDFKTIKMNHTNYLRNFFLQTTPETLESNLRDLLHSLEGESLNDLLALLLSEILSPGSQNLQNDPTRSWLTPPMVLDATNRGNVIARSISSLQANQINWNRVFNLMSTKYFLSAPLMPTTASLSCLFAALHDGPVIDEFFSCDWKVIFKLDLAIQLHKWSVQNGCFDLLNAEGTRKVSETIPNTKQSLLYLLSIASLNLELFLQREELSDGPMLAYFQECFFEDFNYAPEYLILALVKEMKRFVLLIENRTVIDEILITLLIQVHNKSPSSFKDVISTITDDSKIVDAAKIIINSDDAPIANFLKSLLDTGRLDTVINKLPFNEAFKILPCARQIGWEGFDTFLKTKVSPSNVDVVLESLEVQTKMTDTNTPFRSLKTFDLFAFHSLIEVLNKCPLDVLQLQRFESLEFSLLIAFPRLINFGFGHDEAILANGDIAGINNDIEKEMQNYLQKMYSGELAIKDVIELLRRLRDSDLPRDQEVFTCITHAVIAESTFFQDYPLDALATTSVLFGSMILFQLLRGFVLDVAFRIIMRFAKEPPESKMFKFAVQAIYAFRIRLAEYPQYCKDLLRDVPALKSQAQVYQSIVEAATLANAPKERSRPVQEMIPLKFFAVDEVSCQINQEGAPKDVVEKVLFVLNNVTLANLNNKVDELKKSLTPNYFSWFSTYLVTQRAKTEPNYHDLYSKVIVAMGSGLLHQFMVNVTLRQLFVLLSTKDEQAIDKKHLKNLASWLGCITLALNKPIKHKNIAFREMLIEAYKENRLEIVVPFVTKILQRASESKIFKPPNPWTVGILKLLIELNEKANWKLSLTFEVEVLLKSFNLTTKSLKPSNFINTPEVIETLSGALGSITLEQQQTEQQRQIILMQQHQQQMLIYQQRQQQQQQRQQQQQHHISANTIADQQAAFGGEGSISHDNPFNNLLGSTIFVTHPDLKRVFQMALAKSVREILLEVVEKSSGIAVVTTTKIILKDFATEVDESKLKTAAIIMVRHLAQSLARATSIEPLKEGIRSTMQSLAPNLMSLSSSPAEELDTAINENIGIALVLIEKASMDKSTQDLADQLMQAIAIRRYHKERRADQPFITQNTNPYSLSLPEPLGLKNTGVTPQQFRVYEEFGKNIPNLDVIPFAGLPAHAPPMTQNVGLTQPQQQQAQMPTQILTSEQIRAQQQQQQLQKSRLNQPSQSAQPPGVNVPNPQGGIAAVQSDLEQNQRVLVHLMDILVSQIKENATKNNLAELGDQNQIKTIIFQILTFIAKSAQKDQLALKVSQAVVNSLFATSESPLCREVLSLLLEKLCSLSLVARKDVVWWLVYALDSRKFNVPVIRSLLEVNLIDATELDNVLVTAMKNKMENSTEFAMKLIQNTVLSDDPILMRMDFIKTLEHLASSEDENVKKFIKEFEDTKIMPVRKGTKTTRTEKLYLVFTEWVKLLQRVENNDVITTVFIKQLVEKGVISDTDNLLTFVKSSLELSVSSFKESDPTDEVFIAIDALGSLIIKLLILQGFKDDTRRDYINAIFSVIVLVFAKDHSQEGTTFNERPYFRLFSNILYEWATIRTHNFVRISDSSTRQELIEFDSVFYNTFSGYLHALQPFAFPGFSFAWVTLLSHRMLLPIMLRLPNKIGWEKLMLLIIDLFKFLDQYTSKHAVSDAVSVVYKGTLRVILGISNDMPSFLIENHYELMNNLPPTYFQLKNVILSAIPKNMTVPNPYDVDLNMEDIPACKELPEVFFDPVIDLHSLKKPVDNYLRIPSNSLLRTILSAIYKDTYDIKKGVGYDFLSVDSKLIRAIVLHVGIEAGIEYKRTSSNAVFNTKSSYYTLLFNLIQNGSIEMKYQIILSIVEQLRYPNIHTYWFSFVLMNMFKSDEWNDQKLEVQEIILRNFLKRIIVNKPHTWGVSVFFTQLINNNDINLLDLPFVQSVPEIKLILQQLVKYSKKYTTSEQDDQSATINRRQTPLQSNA

ratio to parent: 0.44
Substance: TAP-tagged Dhh1 (from UniProt P39517) R55E; F62E; Q282E; N284E; R355E
